Laboratory results published in US12473545B2, “Regulation of RAN translation by PKR and eIF2α-P pathways” (University of Florida Research Foundation, Incorporated, priority 2017, dated 2025).
“Also recorded” adds a separate entry of the source.

What was measured:
RAN translation = experiment: Immunoblot of RAN protein levels in HEK293T cells transfected with repeat expansion constructs; assay type: cell-based; conditions: for RAN polyGP levels: HEK293T transiently transfected with G4C2 expansion construct, dose series; for polyLPAC RAN protein levels: CCTG (CCUG) expansion construct; for polyGP RAN protein levels: GGGGCC (G4C2) expansion construct
Excerpt: Diagrams of CAG, CCTG and GGGCC repeat expansion constructs used to test effects of protein kinase R (PKR) on repeat associated non-ATG (RAN) translation are shown in FIG. 1A. Briefly, constructs have a 6× stop-codon cassette (e.g., two stops in each reading frame, upstream of the repeat expansions and C-terminal epitope tags). A diagram of PKR vectors expressing wildtype (PKR-WT), the dominant negative K296R mutant form of PKR (PKR-K296R), or the C-terminal only domain (PKR-CT) are shown in FIG. 1B.
(§1) HEK293T cells were transfected with RAN protein-expressing and PKR-expressing constructs.
(§2) HEK293T cells were cultured in DMEM medium supplemented with 10% fetal bovine serum and incubated at 37° C. in a humid atmosphere containing 5% CO2. DNA transfections were performed using Lipofectamine 2000 Reagent (Invitrogen) according to the manufacturer's instructions.
(§3) Transfected cells in each well of a six-well tissue-culture plate were rinsed with PBS and lysed in 300 μL RIPA buffer with protease inhibitor cocktail for 45 min on ice. DNA was sheared by passage through a 21-gauge needle. The cell lysates were centrifuged at 16,000×g for 15 min at 4° C., and the supernatant was collected. The protein concentration of the cell lysate was determined using the protein assay dye reagent (Bio-Rad). Twenty micrograms of protein were separated in a 4-12% NuPAGE Bis-Tris gel (Invitrogen) and transferred to a nitrocellulose membrane (Amersham). The membrane was blocked in 5% dry milk in PBS containing 0.05% Tween-20 (PBS-T) and probed with the anti-Flag (1:2000), anti-Myc (1:1000), anti-HA (1:1000), or rabbit polyclonal antibodies (1:1000) in blocking solution. After the membrane was incubated with anti-rabbit or anti-mouse HRP-conjugated secondary antibody (Amersham), bands were visualized by the ECL plus Western Blotting Detection System (Amersham).
Next, the effects of PKR overexpression and inhibition on RAN protein accumulation across several types of repeat expansions were tested. […] For CAGEXP expressing cells, PKR-WT overexpression led to increased p-PKR and p-eIF2α, and increased RAN polyAla protein levels. In contrast, expression of the dominant-negative PKR-K296R mutation decreased polyAla RAN protein levels. […] The polyGln reading frame, which contains an AUG initiation codon, is not affected by PKR (FIG. 7A).
. […] Protein blots were run on protein lysates from HEK293T cells transfected with various repeat expansion constructs shown in FIG. 13A. In FIG. 13B, the lanes labeled KMQ, show: RAN poly-Ser-Flag, RAN poly-Ala-HA, ATG initiated polyGln-Myc. In FIG. 13B the lanes labeled KMQ has a methionine encoding ATG immediately 5′ to the CAG repeat expansion and located within the polyGln reading frame. The lanes labeled KKQ indicate the KKQ vector contains a CAG expansion without an AUG initiation codon, and indicates: RAN polySer-Flag, RAN polyAla-HA, RAN polyGln-Myc. These constructs contain epitope tags that are incorporated into the C-terminal regions of the ATG-initiated poly-Gln and non-ATG initiated RAN proteins (poly-Gln, poly-Leu-Pro-Ala-Cys and poly-Gly-Pro) which are expressed across these repeat expansions. The lane labeled CCTG expresses the following RAN proteins: RAN polyLPAC-Flag, RAN polyLPAC-HA, RAN polyLPAC-Myc. The lane labeled G4C2 is designed to detect the following RAN proteins: RAN polyGP-Flag, RAN polyGR-HA, RAN polyGA-Myc. […]

PKR = biological target: T1, PKR (Homo sapiens, UniProt P19525); experiment: Protein blot of phospho-PKR (T446 and T451) in HEK293T cells transfected with repeat expansion constructs; assay type: cell-based; conditions: for G4C2 repeat-expansion induced p-PKR levels: HEK293T, G4C2 expansion construct, dose series
T1 construct: endogenous in cells; host or cells: HEK293T
T1 sequence (P19525 whole entry): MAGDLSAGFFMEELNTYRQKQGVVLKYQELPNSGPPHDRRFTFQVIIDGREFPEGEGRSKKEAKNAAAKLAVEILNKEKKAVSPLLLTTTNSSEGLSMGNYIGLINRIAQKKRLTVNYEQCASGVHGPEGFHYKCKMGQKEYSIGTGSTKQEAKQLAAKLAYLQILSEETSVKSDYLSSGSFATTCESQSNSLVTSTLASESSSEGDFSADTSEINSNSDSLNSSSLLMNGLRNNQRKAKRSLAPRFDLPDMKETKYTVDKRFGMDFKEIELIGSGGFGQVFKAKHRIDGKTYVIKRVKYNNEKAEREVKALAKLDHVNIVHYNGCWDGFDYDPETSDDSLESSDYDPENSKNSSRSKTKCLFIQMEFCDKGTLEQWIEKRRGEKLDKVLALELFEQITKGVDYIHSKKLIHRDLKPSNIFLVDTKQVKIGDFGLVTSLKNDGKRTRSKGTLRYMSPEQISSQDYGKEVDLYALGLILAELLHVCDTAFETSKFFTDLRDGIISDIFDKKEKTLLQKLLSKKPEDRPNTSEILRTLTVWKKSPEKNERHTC
Method: as §2, §3
Therefore, the ability of other RAN positive repeat expansions to activate PKR and the role of PKR on RAN translation were tested.
[…]. Transient transfections of expansion constructs treated with or without metformin were performed. […].

[1] = test system: glycine-proline (GP) RAN protein; experiment: GP RAN protein levels in peripheral blood leukocytes of a C9ORF72 expansion-positive human subject; assay type: in vivo; conditions: single human subject; 500 or 1000 mg/day Metformin Hydrochloride Extended Release Tablets; 10 to 30 days; vs pretreatment
Excerpt: […]. […] […].

eIF2α = experiment: Immunoblot of phosphorylated eIF2α in transfected HEK293T cells; assay type: cell-based; conditions: HEK293T co-transfected with repeat expansion constructs
Method: as §1, §2
as §3, with “System (Amersham). […]” for “System (Amersham).”

C9-500 BAC mice = experiment: ICV injection of AAV expressing PKR-K296R in C9-500 BAC transgenic mice; assay type: in vivo; conditions: for GA RAN protein aggregates in the retrosplenial cortex (IHC): analysis at 3 months; for open field center time: vs C9 EGFP control animals
Excerpt: Schematic diagrams of AAV2/9 constructs used for rAAV injections into a BAC transgenic mouse model of C9orf72 ALS/FTD containing 500 G4C2 repeats (C9-500 BAC) are shown in FIG. 3A. Briefly, animals were sacrificed for analysis at 3 months of age after […] intracerebral ventricular (ICV) injections with AAV2/9 virus expressing either EGFP or the dominant negative form of PKR(K296R).
Representative immunohistochemical (IHC) staining of GA RAN protein aggregates in sections of the retrosplenial cortex from C9-500 BAC mice (FIG. 3B, left). Quantification of GA RAN protein aggregates was also performed (FIG. 3B, right). Analysis was done in a blinded fashion.
AAV vectors expressing the PKR under the control of the cytomegalovirus enhance/chicken beta actin (CBA) promoter, a woodchuck hepatitis virus post-transcriptional-regulatory element (WPRE), and the bovine growth hormone polyA were generated by Polyethylenimine Linear (PEI, Polysciences) transfection into HEK293T cells. Cells were co-transfected with AAV helper plasmids pDP8.ape to produce recombinant adeno-associated viral (rAAV) vector rAAV2/8.
Neonatal pups were injected within 0-12 hours after birth. The naive pups were covered in aluminum foil and completely surrounded in ice for 3-4 minutes, resulting in the body temperature being lowered to <10° C. The pups were considered completely cryoanesthetized when all movement stops and the skin color changes from pink to purple. 2 μl of virus ([…]) was slowly injected into the ventricle using 10 μl syringes (30 degree beveled). After injection pups were allowed to completely recover on a warming blanket and then returned to the home cage.
rAAV-mediated delivery of dominant negative PKR-K296R, or EGFP as a control, was performed using intracerebroventricular (ICV) injections at P0 in C9orf72 ALS/FTD BAC transgenic mice (C9-BAC) and non-transgenic (NT) littermate controls. A schematic depiction of each construct is described in FIG. 10A. Four groups of animals (EGFP/C9, EGFP/NT, PKR-K296R/C9 and PKR-K296R/NT) were aged to 3 months. […] Similarly, soluble GP levels, detected by meso-scale detection (MSD) assays, were reduced in brain lysates from C9 PKR-K296R treated animals compared to C9 EGFP controls.

[2] = HEK293T, CAG expansion construct

O=C(COc1ccc(Cl)cc1)NC1CCC(NC(=O)COc2ccc(Cl)cc2)CC1 (stereo not drawn) [ISRIB, reference compound]
polyAla RAN protein levels (RAN translation; HEK293T transfected with expanded CAG and PKR-WT constructs): reduces | polyAla RAN protein levels (RAN translation; HEK293T transfected with expanded CAG and PKR-WT constructs, listed as ISIRB): decrease

CCCCNC(=N)NC(=N)N [buformin, reference compound]
RAN polyGP levels (RAN translation): dose-dependent inhibition | G4C2 repeat-expansion induced p-PKR levels (PKR): dose-dependent inhibition

CN(C)C(=N)NC(=N)N [metformin, reference compound]
RAN protein levels (RAN translation; HEK293T cells expressing CAG, CCUG or G4C2 expansion RNAs, protein blot): decreases | RAN polyGP levels (RAN translation): dose-dependent inhibition | polyAla RAN protein levels (RAN translation; [2]): reduced RAN protein levels | polyLPAC RAN protein levels (RAN translation; HEK293T): reduced RAN protein levels | polyGP RAN protein levels (RAN translation; HEK293T): reduced RAN protein levels | PKR phosphorylation at T446 and T451 (PKR; HEK293T transiently transfected with expansion constructs, with or without metformin): decreases | G4C2 repeat-expansion induced p-PKR levels (PKR): dose-dependent inhibition | glycine-proline (GP) RAN protein levels in leukocyte lysates from peripheral blood [1]: Dose dependent reduction

[H]/N=C(/N)N/C(=N/[H])NCCc1ccccc1 [phenformin, reference compound]
RAN polyGP levels (RAN translation): dose-dependent inhibition | G4C2 repeat-expansion induced p-PKR levels (PKR): dose-dependent inhibition

B1: PKR-K296R: dominant negative K296R mutant form of protein kinase R, expressed from plasmid or AAV vector (protein, UniProt P19525 2-551, looked up, variant K296R)
Interferon-induced, …: AGDLSAGFFMEELNTYRQKQGVVLKYQELPNSGPPHDRRFTFQVIIDGREFPEGEGRSKKEAKNAAAKLAVEILNKEKKAVSPLLLTTTNSSEGLSMGNYIGLINRIAQKKRLTVNYEQCASGVHGPEGFHYKCKMGQKEYSIGTGSTKQEAKQLAAKLAYLQILSEETSVKSDYLSSGSFATTCESQSNSLVTSTLASESSSEGDFSADTSEINSNSDSLNSSSLLMNGLRNNQRKAKRSLAPRFDLPDMKETKYTVDKRFGMDFKEIELIGSGGFGQVFKAKHRIDGKTYVIRRVKYNNEKAEREVKALAKLDHVNIVHYNGCWDGFDYDPETSDDSLESSDYDPENSKNSSRSKTKCLFIQMEFCDKGTLEQWIEKRRGEKLDKVLALELFEQITKGVDYIHSKKLIHRDLKPSNIFLVDTKQVKIGDFGLVTSLKNDGKRTRSKGTLRYMSPEQISSQDYGKEVDLYALGLILAELLHVCDTAFETSKFFTDLRDGIISDIFDKKEKTLLQKLLSKKPEDRPNTSEILRTLTVWKKSPEKNERHTC
polyAla RAN protein levels (RAN translation; [2]): decreased | polyAla RAN protein levels (RAN translation; HEK293T, CAG expansion construct, listed as K296R PKR): decreases | ATG-initiated polyGln protein levels (RAN translation; HEK293T, CAG expansion with ATG in polyGln frame): not affected | polyQAGR RAN protein levels (RAN translation; HEK293T, CAGG expansion construct): decreased | polyLPAC RAN protein levels (RAN translation; HEK293T): decreased | polyLPAC RAN protein levels (RAN translation; HEK293T, listed as K296R PKR): decreases | polyGP RAN protein levels (RAN translation; HEK293T): decreased | polyGP RAN protein levels (RAN translation; HEK293T, listed as K296R PKR): decreases | steady state levels of eIF2α-P (p-eIF2α) (eIF2α): decreases | DigiGait parameters (of 15) significantly different between C9 PKR-K296R and NT treatment groups (C9-500 BAC mice; 12 weeks): 2 | DigiGait parameters improved, of 15 that differed between untreated C9-500 and NT EGFP controls (C9-500 BAC mice; 12 weeks): nine of these parameters improved | soluble GP levels in brain lysates (MSD) (C9-500 BAC mice; neonatal ICV AAV injection, 3 months, vs C9 EGFP controls): reduced | GA RAN protein aggregates in the retrosplenial cortex (IHC) (C9-500 BAC mice; neonatal ICV AAV injection, vs C9 EGFP controls): decreased numbers of GA aggregates | GA RAN protein aggregates in the retrosplenial cortex (IHC) (C9-500 BAC mice; neonatal ICV AAV injection, vs C9 EGFP controls, listed as PKR(K296R)): fewer GA RAN protein aggregates | open field center time (C9-500 BAC mice): increased center time | open field center time (C9-500 BAC mice; listed as PKR(K296R)): reduced center time

B2: TARBP2: PKR inhibitor, transactivation response element RNA-binding protein, overexpressed by co-transfection (protein, UniProt Q15633 1-366, looked up)
RISC-loading complex subunit …: MSEEEQGSGTTTGCGLPSIEQMLAANPGKTPISLLQEYGTRIGKTPVYDLLKAEGQAHQPNFTFRVTVGDTSCTGQGPSKKAAKHKAAEVALKHLKGGSMLEPALEDSSSFSPLDSSLPEDIPVFTAAAAATPVPSVVLTRSPPMELQPPVSPQQSECNPVGALQELVVQKGWRLPEYTVTQESGPAHRKEFTMTCRVERFIEIGSGTSKKLAKRNAAAKMLLRVHTVPLDARDGNEVEPDDDHFSIGVGSRLDGLRNRGPGCTWDSLRNSVGEKILSLRSCSLGSLGALGPACCRVLSELSEEQAFHVSYLDIEELSLSGLCQCLVELSTQPATVCHGSATTREAARGEAARRALQYLKIMAGSK
RAN polyAla levels expressed from CAG and CUG (CTG) expansions (RAN translation; HEK293T co-transfection, overexpression): decreases | polyLPAC RAN protein levels (RAN translation; HEK293T): decreases | steady state levels of eIF2α-P (p-eIF2α) (eIF2α): reduces; also recorded: decrease
